Biological target: human α2-macroglobulin tetramer, (hα2M)4 (human) (UniProt P01023)
Test: cryo-EM structure
Details: scale: trypsin molecule per disulfide-linked hα2M dimer

Chain of UniProt P01023 (P01023 24-1474): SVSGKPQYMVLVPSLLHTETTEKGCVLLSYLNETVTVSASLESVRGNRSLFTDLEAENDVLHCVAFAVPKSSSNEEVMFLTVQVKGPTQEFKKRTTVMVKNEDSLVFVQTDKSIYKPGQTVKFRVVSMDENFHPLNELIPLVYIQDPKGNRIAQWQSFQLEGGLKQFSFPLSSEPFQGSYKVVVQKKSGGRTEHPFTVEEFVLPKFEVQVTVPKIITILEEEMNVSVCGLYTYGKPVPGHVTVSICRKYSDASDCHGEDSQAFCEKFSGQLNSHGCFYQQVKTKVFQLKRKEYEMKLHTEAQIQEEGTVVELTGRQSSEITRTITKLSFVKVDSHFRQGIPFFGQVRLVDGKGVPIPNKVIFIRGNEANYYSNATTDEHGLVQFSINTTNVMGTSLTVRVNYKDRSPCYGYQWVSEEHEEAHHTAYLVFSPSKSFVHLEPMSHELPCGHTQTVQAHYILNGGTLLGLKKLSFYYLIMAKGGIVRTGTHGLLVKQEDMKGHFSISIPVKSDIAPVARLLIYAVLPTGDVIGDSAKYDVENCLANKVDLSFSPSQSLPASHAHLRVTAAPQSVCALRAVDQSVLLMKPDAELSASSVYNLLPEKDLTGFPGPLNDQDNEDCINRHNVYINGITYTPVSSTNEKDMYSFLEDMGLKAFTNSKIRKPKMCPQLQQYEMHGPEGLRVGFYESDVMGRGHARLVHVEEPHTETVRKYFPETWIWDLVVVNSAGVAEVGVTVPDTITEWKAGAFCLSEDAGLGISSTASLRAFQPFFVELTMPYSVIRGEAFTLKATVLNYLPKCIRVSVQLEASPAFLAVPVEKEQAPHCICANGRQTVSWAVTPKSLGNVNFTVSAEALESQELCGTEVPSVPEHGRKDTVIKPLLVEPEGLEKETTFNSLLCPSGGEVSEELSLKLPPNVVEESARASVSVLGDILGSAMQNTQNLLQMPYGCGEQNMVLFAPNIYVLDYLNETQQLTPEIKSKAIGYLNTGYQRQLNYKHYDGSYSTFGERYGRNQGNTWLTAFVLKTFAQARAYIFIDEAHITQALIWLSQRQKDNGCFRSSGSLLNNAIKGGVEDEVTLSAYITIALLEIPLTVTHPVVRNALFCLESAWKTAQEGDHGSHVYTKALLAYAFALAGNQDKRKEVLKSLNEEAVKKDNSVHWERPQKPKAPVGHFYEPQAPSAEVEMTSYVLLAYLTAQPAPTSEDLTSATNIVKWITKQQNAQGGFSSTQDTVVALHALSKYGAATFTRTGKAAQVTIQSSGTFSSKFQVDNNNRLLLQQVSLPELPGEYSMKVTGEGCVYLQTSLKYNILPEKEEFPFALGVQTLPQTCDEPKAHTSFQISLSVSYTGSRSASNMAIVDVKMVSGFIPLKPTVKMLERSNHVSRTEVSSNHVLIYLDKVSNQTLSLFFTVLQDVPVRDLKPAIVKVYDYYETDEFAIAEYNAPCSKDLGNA

**Q.** bovine trypsin (enzyme) was tested. Which stoichiometry N did it give?
**A.** 1

Source: publication PMC9181621
